Laboratory results reported in IntAct's records for PubMed 16499958.

B1: Rab5 GDP/GTP exchange factor (Homo sapiens), Q9UJ41 (parent)
chain: MSLKSERRGIHVDQSDLLCKKGCGYYGNPAWQGFCSKCWREEYHKARQKQIQEDWELAERLQREEEEAFASSQSSQGAQSLTFSKFEEKKTNEKTRKVTTVKKFFSASSRVGSKKEIQEAKAPSPSINRQTSIETDRVSKEFIEFLKTFHKTGQEIYKQTKLFLEGMHYKRDLSIEEQSECAQDFYHNVAERMQTRGKVPPERVEKIMDQIEKYIMTRLYKYVFCPETTDDEKKDLAIQKRIRALRWVTPQMLCVPVNEDIPEVSDMVVKAITDIIEMDSKRVPRDKLACITKCSKHIFNAIKITKNEPASADDFLPTLIYIVLKGNPPRLQSNIQYITRFCNPSRLMTGEDGYYFTNLCCAVAFIEKLDAQSLNLSQEDFDRYMSGQTSPRKQEAESWSPDACLGVKQMYKNLDLLSQLNERQERIMNEAKKLEKDLIDWTDGIAREVQDIVEKYPLEIKPPNQPLAAIDSENVENDKLPPPLQPQVYAG
B2: Unconventional myosin-VI (Homo sapiens), Q9UM54 (parent)
chain: MEDGKPVWAPHPTDGFQMGNIVDIGPDSLTIEPLNQKGKTFLALINQVFPAEEDSKKDVEDNCSLMYLNEATLLHNIKVRYSKDRIYTYVANILIAVNPYFDIPKIYSSEAIKSYQGKSLGTRPPHVFAIADKAFRDMKVLKMSQSIIVSGESGAGKTENTKFVLRYLTESYGTGQDIDDRIVEANPLLEAFGNAKTVRNNNSSRFGKFVEIHFNEKSSVVGGFVSHYLLEKSRICVQGKEERNYHIFYRLCAGASEDIREKLHLSSPDNFRYLNRGCTRYFANKETDKQILQNRKSPEYLKAGSMKDPLLDDHGDFIRMCTAMKKIGLDDEEKLDLFRVVAGVLHLGNIDFEEAGSTSGGCNLKNKSAQSLEYCAELLGLDQDDLRVSLTTRVMLTTAGGTKGTVIKVPLKVEQANNARDALAKTVYSHLFDHVVNRVNQCFPFETSSYFIGVLDIAGFEYFEHNSFEQFCINYCNEKLQQFFNERILKEEQELYQKEGLGVNEVHYVDNQDCIDLIEAKLVGILDILDEENRLPQPSDQHFTSAVHQKHKDHFRLTIPRKSKLAVHRNIRDDEGFIIRHFAGAVCYETTQFVEKNNDALHMSLESLICESRDKFIRELFESSTNNNKDTKQKAGKLSFISVGNKFKTQLNLLLDKLRSTGASFIRCIKPNLKMTSHHFEGAQILSQLQCSGMVSVLDLMQGGYPSRASFHELYNMYKKYMPDKLARLDPRLFCKALFKALGLNENDYKFGLTKVFFRPGKFAEFDQIMKSDPDHLAELVKRVNHWLTCSRWKKVQWCSLSVIKLKNKIKYRAEACIKMQKTIRMWLCKRRHKPRIDGLVKVGTLKKRLDKFNEVVSVLKDGKPEMNKQIKNLEISIDTLMAKIKSTMMTQEQIQKEYDALVKSSEELLSALQKKKQQEEEAERLRRIQEEMEKERKRREEDEKRRRKEEEERRMKLEMEAKRKQEEEERKKREDDEKRIQAEVEAQLARQKEEESQQQAVLEQERRDRELALRIAQSEAELISDEAQADLALRRSLDSYPVSKNDGTRPKMTPEQMAKEMSEFLSRGPAVLATKAAAGTKKYDLSKWKYAELRDTINTSCDIELLAACREEFHRRLKVYHAWKSKNKKRNTETEQRAPKSVTDYDFAPFLNNSPQQNPAAQIPARQREIEMNRQQRFFRIPFIRPADQYKDPQSKKKGWWYAHFDGPWIARQMELHPDKPPILLVAGKDDMEMCELNLEETGLTRKRGAEILPRQFEEIWERCGGIQYLQNAIESRQARPTYATAMLQSLLK

Variants of: B1
Conditions: with ubb_human UBB

effect of a mutation on the interaction	Variant
decreasing interaction	A58G

Variants of: B1
Conditions: with ubb_human UBB
Remark: another data set of the same source

effect of a mutation on the interaction	Variant
decreasing interaction	Y25F

Variants of: B2
Conditions: with ubb_human UBB

effect of a mutation on the interaction	Variant
decreasing interaction	A1013G
